These results are taken from PMC2893164, “Structural Basis of Gate-DNA Breakage and Resealing by Type II Topoisomerases” (PLoS ONE, 2010).

Broadly, the stoichiometry N is a count of units in the complex or per binding partner.

B1: S. pneumoniae ParE TOPRIM domain (ParE30, residues 404-647) (domain or fragment, Streptococcus pneumoniae, UniProt Q59961 404-647, looked up)
chain: KNKKDKGLLSGKLTPAQSKNPAKNELYLVEGDSAGGSAKQGRDRKFQAILPLRGKVVNTAKAKMADILKNEEINTMIYTIGAGVGADFSIEDANYDKIIIMTDADTDGAHIQTLLLTFFYRYMRPLVEAGHVYIALPPLYKMSKGKGKKEEVAYAWTDGELEELRKQFGKGATLQRYKGLGEMNADQLWETTMNPETRTLIRVTIEDLARAERRVNVLMGDKVEPRRKWIEDNVKFTLEETTVF
notes: Topoisomerase IV subunit ParE, Streptococcus pneumoniae, TOPRIM domain, residues 404-647; also called topoisomerase IV subunit ParE; source: E. coli, over-expressed, purified as described previously
B2: S. pneumoniae ParC breakage-reunion domain (ParC55, residues 1-488) (domain or fragment, Streptococcus pneumoniae, UniProt P72525 1-488, looked up)
chain: MSNIQNMSLEDIMGERFGRYSKYIIQDRALPDIRDGLKPVQRRILYSMNKDSNTFDKSYRKSAKSVGNIMGNFHPHGDSSIYDAMVRMSQNWKNREILVEMHGNNGSMDGDPPAAMRYTEARLSEIAGYLLQDIEKKTVPFAWNFDDTEKEPTVLPAAFPNLLVNGSTGISAGYATDIPPHNLAEVIDAAVYMIDHPTAKIDKLMEFLPGPDFPTGAIIQGRDEIKKAYETGKGRVVVRSKTEIEKLKGGKEQIVIIEIPYEINKANLVKKIDDVRVNNKVAGIAEVRDESDRDGLRIAIELKKDANTELVLNYLFKYTDLQINYNFNMVAIDNFTPRQVGIVPILSSYIAHRREVILARSRFDKEKAEKRLHIVEGLIRVISILDEVIALIRASENKADAKENLKVSYDFTEEQAEAIVTLQLYRLTNTDVVVLQEEEAELREKIAMLAAIIGDERTMYNLMKKELREVKKKFATPRLSSLEDTAKA
modifications: Tyr 118 linked covalently to the 5' phosphate end of the cleaved DNA (in the cleaved complexes; not in the resealed complex)
notes: Topoisomerase IV subunit ParC, Streptococcus pneumoniae, breakage-reunion domain, residues 1-488; also called topoisomerase IV subunit ParC; source: E. coli, over-expressed, purified as described previously

In data set [1] the target is B2. Briefly: crystal structure; ParC55 and ParE30 (equimolar, 4 mg/ml) co-crystallised with the 34-bp E-site DNA (1:1:1.2) and quinazolinedione PD 0305970, 20 mM MgCl2, pH 7.0; 3.1 A; the same crystals back-soaked and soaked with levofloxacin (2.9 A), EDTA (3.3 A) or EDTA then Mg2+ (3.5 A). To be noted: both partners purified.
Data set [2] deals with the molecule itself. The description is as above.

As to B1, the binding result in data set [1] is given as “binds”.
Take B2: the “stoichiometry N” value in data set [2] was found to be 2.
